Results reported in patent US20250282881A1 (SHANGHAI EPIMAB BIOTHERAPEUTICS, published 2025).

Legend:
[1] = target: T1, human PD-L1 on cells (CHO-PD-L1, CHO-PD-L1-OS8) (human, UniProt Q9NZQ7 19-290); assay: cell-based receptor blocking assay, FACS: antibody against PD-1-mFc binding to CHO-PD-L1 cells, anti-mouse IgG detection
T1 construct: whole, on cells; also called PD-L1 over-expressing cells; CD274
Procedure: Blocking of PD-1/PD-L1 binding was assessed in a cell based receptor blocking assay (RBA), 100 μl of 2×10⁵ cells/well of CHO-PD-L1 cells were added to a 96-well round-bottomed plate (Corning, Cat #3799), 50 μl serial diluted of antibody at 0.016 nM to 50 nM and 50 μl of 50 μg/ml PD-1-mFc (Novoprotein, #C754) were added to each well, mixed gently then incubated at 4° C. for 1 hour. The cells were washed and stained by Alexa Fluor® 647 anti-mouse IgG (1:500, Jackson ImmunoResearch, #115-606-008). Signals were read out by FACS and curves were fitted by GraphPad Prism 8.0.

[2] = target: T2, recombinant human PD-L1/His fusion protein (Novoprotein, Cat. No. C315) (human, UniProt Q9NZQ7 19-239); assay: BLI (Octet Red96), FIT1014-20a on AHC sensor, human PD-L1-his as analyte
T2 construct: also called recombinant human PD-L1-his protein
T2 sequence (Q9NZQ7 19-239 limits assumed): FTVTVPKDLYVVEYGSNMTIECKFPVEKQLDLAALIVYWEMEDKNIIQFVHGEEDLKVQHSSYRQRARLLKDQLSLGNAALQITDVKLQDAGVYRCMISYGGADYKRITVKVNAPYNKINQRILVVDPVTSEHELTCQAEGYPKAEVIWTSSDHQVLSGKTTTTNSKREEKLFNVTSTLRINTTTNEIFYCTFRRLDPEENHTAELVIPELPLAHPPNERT
Procedure: (§1) The PD-L1 binding activities of FIT1014-20a were detected by biolayer interferometry using an Octet® Red sensing device (ForteBio, Red96). […] The association and dissociation curves were fitted to a 1:1 Langmuir binding model using FortéBio Data Analysis software (Pall) to produce kinetic rate constants Kon and Koff. The equilibrium dissociation constant KD (M) of the reaction between antibodies and related target proteins was then calculated by KD=koff/kon.

[3] = target: T1, human PD-L1 on cells (CHO-PD-L1, …); assay: FACS on CHO-PD-L1 cells, Alexa Fluor 647 anti-human IgG, MFI
Procedure: Cell binding affinity of PD-L1/OX40 antibodies were measured against CHO (ATCC, #CCL-61) overexpressing human PD-L1 (CHO-PD-L1) and CHO overexpressing OX40 (CHO-OX40), respectively. Briefly, 5×10⁵ cells were seeded into each well of a 96-well plate (Corning, #3799). Cells were centrifuged at 400 g for 5 minutes and supernatants were discarded. For each well, 100 μl of 3× serial dilution of antibodies starting from 100 nM were then added and mixed with the cells. After 60 minutes of 4° C. incubation, plates were washed several times to remove excess antibodies. […] After another round of centrifugation and washing, cells were resuspended in FACS buffer for reading on a CytoFLEX Flow Cytometer (Beckman Coulter). Median Fluorescence Intensity (MFI) readouts were plotted against antibody concentration and analyzed with GraphPad Prism 8.0.

[4] = target: Cyno OX40 (protein analyte in BLI, Table 10) (cyno); assay: BLI (Octet Red96), FIT1014-20a on AHC sensor, cyno OX40 as analyte
[5] = target: recombinant cyno PD-L1-his protein (cyno, UniProt G7PSE7 19-239); assay: BLI (Octet Red96), FIT1014-20a on AHC sensor, cyno PD-L1-his as analyte
Chain of recombinant cyno PD-L1-his protein (G7PSE7 entry or part of it): as the sequence (Q9NZQ7 19-239 limits assumed) above, with A33T, A34S, S62N, R68Q, Q82R, F173L, T185A, T192I, H215L counted along it
Procedure: as §1

T1 sequence (Q9NZQ7 19-290): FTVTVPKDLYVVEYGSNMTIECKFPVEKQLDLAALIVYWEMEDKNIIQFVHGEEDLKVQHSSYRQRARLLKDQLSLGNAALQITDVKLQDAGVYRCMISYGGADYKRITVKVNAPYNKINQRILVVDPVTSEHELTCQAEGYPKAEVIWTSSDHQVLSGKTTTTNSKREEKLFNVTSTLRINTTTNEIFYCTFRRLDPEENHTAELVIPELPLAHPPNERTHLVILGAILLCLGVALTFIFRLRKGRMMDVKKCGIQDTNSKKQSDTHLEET

| Binder | IC50 (read off the curve) [1] [nM] | Kd [2] [nM] | koff [2] [s⁻¹] | kon [2] [M⁻¹ s⁻¹] | EC50 (read off the curve) [3] [nM] | Kd [4] [nM] | koff [4] [s⁻¹] | kon [4] [M⁻¹ s⁻¹] | Kd [5] [nM] | koff [5] [s⁻¹] | kon [5] [M⁻¹ s⁻¹] |
| --- | --- | --- | --- | --- | --- | --- | --- | --- | --- | --- | --- |
| FIT1014-20a (bispecific antibody, human IgG1, kappa, L234A L235A, Hexamer of three component polypeptide chains (two of each); outer Fab anti-PD-L1 (HuEM0005-86-64), inner Fab anti-OX40 (HuEM1007-44-16); also called FIT1014-20a (YTE); PD-L1/OX40 FIT-Ig) chain 1: DIQMTQSPSSVSASVGDRVTITCKASQDVGTAVAWYQQKPGKAPKLLIYWASTRHTGVPSRFSGSGSGTDFTLTISSLQPEDFATYYCQQYSSYPYTFGGGTKVEIKRTVAAPSVFIFPPSDEQLKSGTASVVCLLNNFYPREAKVQWKVDNALQSGNSQESVTEQDSKDSTYSLSSTLTLSKADYEKHKVYACEVTHQGLSSPVTKSFNRGECEVQLQQSGAEVKKPGSSVKVSCKASGHAFSSSWMNWVKQRPGKGLEWIGRIYPGDEITNYNAKFKDKATLTADKSTSTAYMELSSLRSEDTAVYYCARDLLMPYWGQGTLVTVSSASTKGPSVFPLAPSSKSTSGGTAALGCLVKDYFPEPVTVSWNSGALTSGVHTFPAVLQSSGLYSLSSVVTVPSSSLGTQTYICNVNHKPSNTKVDKKVEPKSCDKTHTCPPCPAPEAAGGPSVFLFPPKPKDTLYITREPEVTCVVVDVSHEDPEVKFNWYVDGVEVHNAKTKPREEQYNSTYRVVSVLTVLHQDWLNGKEYKCKVSNKALPAPIEKTISKAKGQPREPQVYTLPPSREEMTKNQVSLTCLVKGFYPSDIAVEWESNGQPENNYKTTPPVLDSDGSFFLYSKLTVDKSRWQQGNVFSCSVMHEALHNHYTQKSLSLSPGK chain 2: EVQLVQSGSELKKPGASVKVSCKASGYTFTTYGINWVRQAPGQGLEWMGYIYIGNAYTEYNEKFKGRFVFSLDTSVSTAYLQISSLKAEDTAVYYCARDLMVIAPKTMDYWGQGTTVTVSSASTKGPSVFPLAPSSKSTSGGTAALGCLVKDYFPEPVTVSWNSGALTSGVHTFPAVLQSSGLYSLSSVVTVPSSSLGTQTYICNVNHKPSNTKVDKKVEPKSC chain 3: DIVMTQTPLSLPVTPGEPASISCRSSKSLLYSNAITYLYWYLQKPGQSPQLLIYQMSNLAPGVPDRFSSSGSGTDFTLKISRVEAEDVGVYYCAQNLELPFTFGQGTKLEIKRTVAAPSVFIFPPSDEQLKSGTASVVCLLNNFYPREAKVQWKVDNALQSGNSQESVTEQDSKDSTYSLSSTLTLSKADYEKHKVYACEVTHQGLSSPVTKSFNRGEC | ~0.8 | 0.255 | 0.000158 | 620000 | ~1 | 5.13 | 0.0004 | 78000 | 0.587 | 0.000276 | 470000 |
| HuEM0005-86-64 (antibody, human IgG1, kappa, L234A L235A, V domains shown, Humanized anti-PD-L1; same as HuEM0005-86-21 except Q1E and C82aS (Kabat) in VH; also called parental anti-PD-L1 monoclonal antibody; parental PD-L1 antibody) VH: EVQLVQSGSELKKPGASVKVSCKASGYTFTTYGINWVRQAPGQGLEWMGYIYIGNAYTEYNEKFKGRFVFSLDTSVSTAYLQISSLKAEDTAVYYCARDLMVIAPKTMDYWGQGTTVTVSS VL: DIQMTQSPSSVSASVGDRVTITCKASQDVGTAVAWYQQKPGKAPKLLIYWASTRHTGVPSRFSGSGSGTDFTLTISSLQPEDFATYYCQQYSSYPYTFGGGTKVEIKR | ~0.8 |  |  |  | ~0.8 |  |  |  |  |  |  |
